B1: Complement Factor I (protein)
chain 1: KVTYTSQEDLVEKKCLAKKYTHLSCDKVFCQPWQRCIEGTCVCKLPYQCPKNGTAVCATNRRSFPTYCQQKSLECLHPGTKFLNNGTCTAEGKFSVSLKHGNTDSEGIVEVKLVDQDKTMFICKSSWSMREANVACLDLGFQQGADTQRRFKLSDLSINSTECLHVHCRGLETSLAECTFTKRRTMGYQDFADVVCYTQKADSPMDDFFQCVNGKYISQMKACDGINDCGDQSDELCCKACQGKGFHCKSGVCIPSQYQCNGEVDCITGEDEVGCAGFASVTQEETEILTADMDAERRRIKSLLPKLSCGVKNRMHI
chain 2: IVGGKRAQLGDLPWQVAIKDASGITCGGIYIGGCWILTAAHCLRASKTHRYQIWTTVVDWIHPDLKRIVIEYVDRIIFHENYNAGTYQNDIALIEMKKDGNKKDCELPRSIPACVPWSPYLFQPNDTCIVSGWGREKDNERVFSLQWGEVKLISNCSKFYGNRFYEKEMECAGTYDGSIDACKGDSGGPLVCMDANNVTYVWGVVSWGENCGKPEFPGVYTKVANYFDWISYHVGRPFISQYNV
B2: glycosylated chimeric FH-FI polypeptide (other)
chain: GSSGEDCNELPPRRNTEILTGSWSDQTYPEGTQAIYKCRPGYRSLGNIIMVCRKGEWVALNPLRKCQKRPCGHPGDTPFGTFTLTGGNVFEYGVKAVYTCNEGYQLLGEINYRECDTDGWTNDIPICEVVKCLPVTAPENGKIVSSAMEPDREYHFGQAVRFVCNSGYKIEGDEEMHCSDDGFWSKEKPKCVEISCKSPDVINGSPISQKIIYKENERFQYKCNMGYEYSERGDAVCTESGWRPLPSCEEGGGGSRGGGGSGGGGSIVGGKRAQLGDLPWQVAIKDASGITCGGIYIGGCWILTAAHCLRASKTHRYQIWTTVVDWIHPDLKRIVIEYVDRIIFHENYNAGTYQNDIALIEMKKDGNKKDCELPRSIPAAVPWSPYLFQPNDTCIVSGWGREKDNERVFSLQWGEVKLISNCSKFYGNRFYEKEMECAGTYDGSIDACKGDSGGPLVCMDANNVTYVWGVVSWGENCGKPEFPGVYTKVANYFDWISYHVGRPFISQYNV
modifications: N-glycans on the Complement Factor I proteolytic domain (glycosylated form)
notes: It consists of the Factor H co-factor region (CCPs 1-4), a G4S-R-(G4S)2 linker and the Factor I proteolytic domain; also called Chimera
B3: deglycosylated chimeric FH-FI polypeptide (other)
chain: B2 chain
modifications: N-glycans removed with PNGase F under non-denaturing conditions
notes: It is not the N464Q/N494Q/N536Q mutant; also called dFH-FI; dChimera
B4: Complement Factor H (other)
chain: EDCNELPPRRNTEILTGSWSDQTYPEGTQAIYKCRPGYRSLGNVIMVCRKGEWVALNPLRKCQKRPCGHPGDTPFGTFTLTGGNVFEYGVKAVYTCNEGYQLLGEINYRECDTDGWTNDIPICEVVKCLPVTAPENGKIVSSAMEPDREYHFGQAVRFVCNSGYKIEGDEEMHCSDDGFWSKEKPKCVEISCKSPDVINGSPISQKIIYKENERFQYKCNMGYEYSERGDAVCTESGWRPLPSCEEKSCDNPYIPNGDYSPLRIKHRTGDEITYQCRNGFYPATRGNTAKCTSTGWIPAPRCTLKPCDYPDIKHGGLYHENMRRPYFPVAVGKYYSYYCDEHFETPSGSYWDHIHCTQDGWSPAVPCLRKCYFPYLENGYNQNYGRKFVQGKSIDVACHPGYALPKAQTTVTCMENGWSPTPRCIRVKTCSKSSIDIENGFISESQYTYALKEKAKYQCKLGYVTADGETSGSITCGKDGWSAQPTCIKSCDIPVFMNARTKNDFTWFKLNDTLDYECHDGYESNTGSTTGSIVCGYNGWSDLPICYERECELPKIDVHLVPDRKKDQYKVGEVLKFSCKPGFTIVGPNSVQCYHFGLSPDLPICKEQVQSCGPPPELLNGNVKEKTKEEYGHSEVVEYYCNPRFLMKGPNKIQCVDGEWTTLPVCIVEESTCGDIPELEHGWAQLSSPPYYYGDSVEFNCSESFTMIGHRSITCIHGVWTQLPQCVAIDKLKKCKSSNLIILEEHLKNKKEFDHNSNIRYRCRGKEGWIHTVCINGRWDPEVNCSMAQIQLCPPPPQIPNSHNMTTTLNYRDGEKVSVLCQENYLIQEGEEITCKDGRWQSIPLCVEKIPCSQPPQIEHGTINSSRSSQESYAHGTKLSYTCEGGFRISEENETTCYMGKWSSPPQCEGLPCKSPPEISHGVVAHMSDSYQYGEEVTYKCFEGFGIDGPAIAKCLGEKWSHPPSCIKTDCLSLPSFENAIPMGEKKDVYKAGEQVTYTCATYYKMDGASNVTCINSRWTGRPTCRDTSCVNPPTVQNAYIVSRQMSKYPSGERVRYQCRSPYEMFGDEEVMCLNGNWTEPPQCKDSTGKCGPPPPIDNGDITSFPLSVYAPASSVEYQCQNLYQLEGNKRITCRNGQWSEPPKCLHPCVISREIMENYNIALRWTAKQKLYSRTGESVEFVCKRGYRLSSRSHTLRTTCWDGKLEYPTCAKR
notes: Positive control in the BLI assay; also called FH
B5: Complement Factor H isoform FHL-1 (other)
chain: EDCNELPPRRNTEILTGSWSDQTYPEGTQAIYKCRPGYRSLGNVIMVCRKGEWVALNPLRKCQKRPCGHPGDTPFGTFTLTGGNVFEYGVKAVYTCNEGYQLLGEINYRECDTDGWTNDIPICEVVKCLPVTAPENGKIVSSAMEPDREYHFGQAVRFVCNSGYKIEGDEEMHCSDDGFWSKEKPKCVEISCKSPDVINGSPISQKIIYKENERFQYKCNMGYEYSERGDAVCTESGWRPLPSCEEKSCDNPYIPNGDYSPLRIKHRTGDEITYQCRNGFYPATRGNTAKCTSTGWIPAPRCTLKPCDYPDIKHGGLYHENMRRPYFPVAVGKYYSYYCDEHFETPSGSYWDHIHCTQDGWSPAVPCLRKCYFPYLENGYNQNYGRKFVQGKSIDVACHPGYALPKAQTTVTCMENGWSPTPRCIRVSFTL
notes: Positive control in the BLI assay; also called factor H-like protein 1

Key:
C3b [1] = molecular target: C3b
C3b [2] = molecular target: T1, C3b (human, UniProt P01024 23-667; P01024 749-1663); test: Bio-Layer Interferometry
T1 construct: also called purified C3b
T1 sequence (P01024 23-667 limits assumed, chain 1 of 2): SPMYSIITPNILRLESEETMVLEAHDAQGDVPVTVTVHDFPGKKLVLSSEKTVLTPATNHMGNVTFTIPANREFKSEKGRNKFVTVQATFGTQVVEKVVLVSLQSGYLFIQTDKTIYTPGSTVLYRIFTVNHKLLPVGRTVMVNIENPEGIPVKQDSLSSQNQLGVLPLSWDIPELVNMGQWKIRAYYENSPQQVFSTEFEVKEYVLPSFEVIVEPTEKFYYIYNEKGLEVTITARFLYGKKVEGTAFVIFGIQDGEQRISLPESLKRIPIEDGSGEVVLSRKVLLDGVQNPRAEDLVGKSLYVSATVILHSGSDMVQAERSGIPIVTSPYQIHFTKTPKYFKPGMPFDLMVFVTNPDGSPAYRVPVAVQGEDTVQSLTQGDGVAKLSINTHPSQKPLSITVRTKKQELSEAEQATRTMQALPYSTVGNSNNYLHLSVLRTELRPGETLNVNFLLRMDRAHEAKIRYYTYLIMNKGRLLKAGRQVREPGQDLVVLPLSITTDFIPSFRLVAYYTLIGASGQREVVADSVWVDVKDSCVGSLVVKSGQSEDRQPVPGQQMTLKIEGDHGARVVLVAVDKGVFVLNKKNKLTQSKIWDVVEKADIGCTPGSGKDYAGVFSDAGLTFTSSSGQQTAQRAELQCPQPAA
T1 sequence (P01024 749-1663 limits assumed, chain 2 of 2): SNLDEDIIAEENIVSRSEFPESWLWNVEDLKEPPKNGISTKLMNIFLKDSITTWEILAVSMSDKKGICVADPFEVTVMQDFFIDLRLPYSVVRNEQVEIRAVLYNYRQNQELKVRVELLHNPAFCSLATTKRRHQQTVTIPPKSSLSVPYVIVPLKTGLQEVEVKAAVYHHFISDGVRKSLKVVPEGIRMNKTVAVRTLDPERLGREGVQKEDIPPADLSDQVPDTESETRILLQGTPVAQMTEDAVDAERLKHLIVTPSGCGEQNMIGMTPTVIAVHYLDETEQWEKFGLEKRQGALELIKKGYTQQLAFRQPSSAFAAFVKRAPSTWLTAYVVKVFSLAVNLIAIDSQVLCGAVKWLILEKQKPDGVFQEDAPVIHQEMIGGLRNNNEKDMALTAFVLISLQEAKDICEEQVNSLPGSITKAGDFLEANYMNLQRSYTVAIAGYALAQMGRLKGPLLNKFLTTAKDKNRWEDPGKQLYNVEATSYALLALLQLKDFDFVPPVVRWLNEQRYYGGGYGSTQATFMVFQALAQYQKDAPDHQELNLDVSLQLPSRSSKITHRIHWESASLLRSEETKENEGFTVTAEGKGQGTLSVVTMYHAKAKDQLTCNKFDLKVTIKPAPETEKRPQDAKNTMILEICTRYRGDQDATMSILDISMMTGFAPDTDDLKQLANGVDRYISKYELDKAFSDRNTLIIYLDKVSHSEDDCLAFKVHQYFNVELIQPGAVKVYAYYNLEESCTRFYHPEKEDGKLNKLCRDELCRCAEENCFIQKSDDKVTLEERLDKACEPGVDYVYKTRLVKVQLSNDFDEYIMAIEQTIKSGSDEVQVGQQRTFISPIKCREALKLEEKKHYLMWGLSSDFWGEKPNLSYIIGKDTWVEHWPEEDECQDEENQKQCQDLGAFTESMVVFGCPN

Binder	C3b alpha-chain breakdown (Instant Blue stained gel), with FHL-1 as co-factor (C3b [1])	Kd (C3b [2]) [µM]
B1	It was possible to observe the breakdown of the α-chain of C3b in the presence of FHL-1 and FI	–
B2	–	0.00521
B3	–	0.0476
B4	–	0.583
B5	–	1.17
